Measurements reported in US20260184804A1.

How the values were obtained:
[1] = biological target: His-tagged ectodomain of human transferrin receptor 1 (hTfR1), amino acids R121-F760 (human) (UniProt P02786); assay: SPR; binder captured on protein A, receptor as analyte 0.156-40 nM; with 250 nM hTf
[2] = biological target: His-tagged ectodomain of cynomolgus transferrin receptor 1 (cTfR1), amino acids R121-F760 (cynomolgus monkey); assay: as above
[3] = biological target: His-tagged ectodomain of human transferrin receptor 1 (hTfR1), amino acids R121-F760 (human) (UniProt P02786); assay: SPR (Biacore T200, single-cycle); hTfR1 captured on amine-coupled hTf, binder as analyte 6.25-100 nM
[4] = biological target: Apical domain construct of hTfR1 displayed on M13 phage (human); assay: Seqitope mutagenic scanning of the phage-displayed apical domain of hTfR1
[5] = biological target: His-tagged ectodomain of human transferrin receptor 1 (hTfR1), amino acids R121-F760 (human) (UniProt P02786); assay: SPR; binder captured on protein A, receptor as analyte 0.156-40 nM; no hTf
[6] = biological target: His-tagged ectodomain of cynomolgus transferrin receptor 1 (cTfR1), amino acids R121-F760 (cynomolgus monkey); assay: as above

His-tagged ectodomain of human transferrin receptor 1 (hTfR1), amino acids R121-F760 (human), sequence (P02786 other isoform, or with tags, fused parts or gaps limits assumed): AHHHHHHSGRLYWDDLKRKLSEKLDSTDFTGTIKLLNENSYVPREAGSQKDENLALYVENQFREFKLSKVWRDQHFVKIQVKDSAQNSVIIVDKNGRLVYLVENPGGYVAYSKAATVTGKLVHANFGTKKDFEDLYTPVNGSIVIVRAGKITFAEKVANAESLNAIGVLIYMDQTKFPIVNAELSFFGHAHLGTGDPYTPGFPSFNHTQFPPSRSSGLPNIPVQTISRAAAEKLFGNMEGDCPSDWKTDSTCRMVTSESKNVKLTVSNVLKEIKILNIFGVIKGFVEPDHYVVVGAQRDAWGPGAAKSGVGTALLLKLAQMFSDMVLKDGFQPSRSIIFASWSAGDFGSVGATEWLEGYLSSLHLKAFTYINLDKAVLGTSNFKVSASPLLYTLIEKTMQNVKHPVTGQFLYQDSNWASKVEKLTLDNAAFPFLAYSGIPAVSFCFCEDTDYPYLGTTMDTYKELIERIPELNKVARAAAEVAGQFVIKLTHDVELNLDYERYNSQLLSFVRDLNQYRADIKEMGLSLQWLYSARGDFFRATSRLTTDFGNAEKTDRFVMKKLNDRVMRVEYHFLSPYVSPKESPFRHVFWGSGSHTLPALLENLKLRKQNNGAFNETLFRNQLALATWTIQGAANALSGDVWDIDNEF
His-tagged ectodomain of cynomolgus transferrin receptor 1 (cTfR1), amino acids R121-F760 (cynomolgus monkey), sequence (Q5RDH6 other isoform, or with tags, fused parts or gaps limits assumed): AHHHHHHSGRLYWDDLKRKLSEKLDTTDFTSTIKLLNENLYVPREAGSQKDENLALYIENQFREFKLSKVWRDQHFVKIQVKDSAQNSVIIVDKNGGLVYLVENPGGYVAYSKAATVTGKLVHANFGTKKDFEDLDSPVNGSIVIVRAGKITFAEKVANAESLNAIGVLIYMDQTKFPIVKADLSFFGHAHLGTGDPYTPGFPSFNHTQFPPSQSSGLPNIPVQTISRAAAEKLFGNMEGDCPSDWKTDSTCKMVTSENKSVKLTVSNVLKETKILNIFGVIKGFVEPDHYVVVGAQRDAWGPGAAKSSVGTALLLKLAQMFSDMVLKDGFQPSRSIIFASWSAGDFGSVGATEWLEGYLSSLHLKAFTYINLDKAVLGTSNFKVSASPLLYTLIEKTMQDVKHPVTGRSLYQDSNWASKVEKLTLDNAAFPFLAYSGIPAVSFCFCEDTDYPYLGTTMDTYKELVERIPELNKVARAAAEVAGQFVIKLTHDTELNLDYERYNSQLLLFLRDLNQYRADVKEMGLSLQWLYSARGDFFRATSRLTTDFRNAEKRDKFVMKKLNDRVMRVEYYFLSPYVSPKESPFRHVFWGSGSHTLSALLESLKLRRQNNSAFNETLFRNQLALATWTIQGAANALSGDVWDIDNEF

Kd [1]: 0.0834 nM | koff [1]: 5.77e-05 s⁻¹ | kon [1]: 692000 M⁻¹ s⁻¹ | Kd [2]: 0.33 nM | koff [2]: 8e-05 s⁻¹ | kon [2]: 242000 M⁻¹ s⁻¹ | Kd [3]: 0.0199 nM | koff [3]: 5.63e-05 s⁻¹ | kon [3]: 2.82e+06 M⁻¹ s⁻¹ | Kd [5]: 0.101 nM | koff [5]: 8.87e-05 s⁻¹ | kon [5]: 882000 M⁻¹ s⁻¹ | Kd [6]: 0.414 nM | koff [6]: 8.85e-05 s⁻¹ | kon [6]: 214000 M⁻¹ s⁻¹
Substance: Benchmark antibody 128.1 (BA1), full length human IgG1
Binding Ratio (BR) of residue D242 [4]: 3.56 | Binding Ratio (BR) of residue E369 [4]: 6.88 | Binding Ratio (BR) of residue G351 [4]: 3.27 | Binding Ratio (BR) of residue L246 [4]: 3.36 | Binding Ratio (BR) of residue P249 [4]: 2.64 | Binding Ratio (BR) of residue R364 [4]: 2.64 | Binding Ratio (BR) of residue V366 [4]: 4.15
